Experimental data taken from article PMC3708604 (Methods in molecular biology (Clifton, N.J.), 2013).

B1: Full-length FLAG-epitope-tagged human ERα (receptor, UniProt P03372 1-595, looked up)
chain: MTMTLHTKASGMALLHQIQGNELEPLNRPQLKIPLERPLGEVYLDSSKPAVYNYPEGAAYEFNAAAAANAQVYGQTGLPYGPGSEAAAFGSNGLGGFPPLNSVSPSPLMLLHPPPQLSPFLQPHGQQVPYYLENEPSGYTVREAGPPAFYRPNSDNRRQGGRERLASTNDKGSMAMESAKETRYCAVCNDYASGYHYGVWSCEGCKAFFKRSIQGHNDYMCPATNQCTIDKNRRKSCQACRLRKCYEVGMMKGGIRKDRRGGRMLKHKRQRDDGEGRGEVGSAGDMRAANLWPSPLMIKRSKKNSLALSLTADQMVSALLDAEPPILYSEYDPTRPFSEASMMGLLTNLADRELVHMINWAKRVPGFVDLTLHDQVHLLECAWLEILMIGLVWRSMEHPGKLLFAPNLLLDRNQGKCVEGMVEIFDMLLATSSRFRMMNLQGEEFVCLKSIILLNSGVYTFLSSTLKSLEEKDHIHRVLDKITDTLIHLMAKAGLTLQQQHQRLAQLLLILSHIRHMSNKGMEHLYSMKCKNVVPLYDLLLEMLDAHRLHAPTSRGGASVEETDQSHLATAGSTSSHSLQKYYITGEAEGFPATV

Assays:
[1] = biological target: B1; test: fluorescence polarisation
[2] = biological target: Full-length FLAG-epitope-tagged human SRC1a (human, UniProt Q15788-1 1-1441); test: fluorescence polarisation
Full-length FLAG-epitope-tagged human SRC1a, sequence (Q15788 whole entry): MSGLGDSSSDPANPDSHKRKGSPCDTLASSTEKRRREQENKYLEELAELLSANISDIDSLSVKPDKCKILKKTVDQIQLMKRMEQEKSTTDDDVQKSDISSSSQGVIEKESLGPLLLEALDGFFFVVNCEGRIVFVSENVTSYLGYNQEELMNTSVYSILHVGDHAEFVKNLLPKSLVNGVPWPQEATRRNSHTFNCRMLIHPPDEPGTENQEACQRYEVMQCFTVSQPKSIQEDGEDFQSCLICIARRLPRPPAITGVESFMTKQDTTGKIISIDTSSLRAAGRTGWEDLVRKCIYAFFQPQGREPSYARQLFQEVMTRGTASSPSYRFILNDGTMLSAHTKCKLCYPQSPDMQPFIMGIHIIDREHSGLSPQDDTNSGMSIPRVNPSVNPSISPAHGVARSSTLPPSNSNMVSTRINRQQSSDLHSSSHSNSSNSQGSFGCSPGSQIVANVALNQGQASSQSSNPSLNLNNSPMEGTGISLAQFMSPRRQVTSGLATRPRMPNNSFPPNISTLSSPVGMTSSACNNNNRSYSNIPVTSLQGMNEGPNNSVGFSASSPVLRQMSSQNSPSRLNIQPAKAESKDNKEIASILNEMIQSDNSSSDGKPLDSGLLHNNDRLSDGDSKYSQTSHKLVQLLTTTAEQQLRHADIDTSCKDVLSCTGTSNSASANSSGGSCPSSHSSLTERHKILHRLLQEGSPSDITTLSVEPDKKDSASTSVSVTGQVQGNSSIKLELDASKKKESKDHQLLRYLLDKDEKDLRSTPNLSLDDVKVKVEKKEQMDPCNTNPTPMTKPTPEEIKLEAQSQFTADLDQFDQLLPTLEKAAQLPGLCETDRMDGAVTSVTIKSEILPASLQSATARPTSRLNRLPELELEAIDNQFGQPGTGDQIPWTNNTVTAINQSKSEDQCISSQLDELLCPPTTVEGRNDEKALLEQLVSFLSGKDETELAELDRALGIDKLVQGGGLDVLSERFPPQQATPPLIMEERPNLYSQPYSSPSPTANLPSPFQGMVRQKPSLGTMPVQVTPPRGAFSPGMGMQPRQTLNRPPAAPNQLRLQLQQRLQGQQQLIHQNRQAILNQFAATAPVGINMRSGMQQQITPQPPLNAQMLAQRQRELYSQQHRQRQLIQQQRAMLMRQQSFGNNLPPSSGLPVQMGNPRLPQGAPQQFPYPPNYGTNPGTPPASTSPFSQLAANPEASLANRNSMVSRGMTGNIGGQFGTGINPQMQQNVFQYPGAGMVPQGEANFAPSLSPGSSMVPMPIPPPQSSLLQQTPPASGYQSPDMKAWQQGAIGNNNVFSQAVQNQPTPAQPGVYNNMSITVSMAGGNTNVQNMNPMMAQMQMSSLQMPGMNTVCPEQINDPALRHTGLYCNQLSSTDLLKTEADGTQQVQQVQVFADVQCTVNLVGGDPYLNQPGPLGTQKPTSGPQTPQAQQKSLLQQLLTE

IC50 [1] [nM] | Kd [2] [nM] | Binder
~3800 |  | QAQQKSLLQQLLTE [SRC1 NR Box 4 peptide]
 | ~14 | B1
 | ~6 | FLAG-epitope-tagged human ERβ (receptor, UniProt Q92731 1-530, looked up) MDIKNSPSSLNSPSSYNCSQSILPLEHGSIYIPSSYVDSHHEYPAMTFYSPAVMNYSIPSNVTNLEGGPGRQTTSPNVLWPTPGHLSPLVVHRQLSHLYAEPQKSPWCEARSLEHTLPVNRETLKRKVSGNRCASPVTGPGSKRDAHFCAVCSDYASGYHYGVWSCEGCKAFFKRSIQGHNDYICPATNQCTIDKNRRKSCQACRLRKCYEVGMVKCGSRRERCGYRLVRRQRSADEQLHCAGKAKRSGGHAPRVRELLLDALSPEQLVLTLLEAEPPHVLISRPSAPFTEASMMMSLTKLADKELVHMISWAKKIPGFVELSLFDQVRLLESCWMEVLMMGLMWRSIDHPGKLIFAPDLVLDRDEGKCVEGILEIFDMLLATTSRFRELKLQHKEYLCVKAMILLNSSMYPLVTATQDADSSRKLAHLLNAVTDALVWVIAKSGISSQQQSMRLANLLMLLSHVRHASNKGMEHLLNMKCKNVVPVYDLLLEMLNAHVLRGCKSSITGSECSPAEDSKSKEGSQNPQSQ
~1000 |  | LTERHKILHRLLQE [SRC1 NR Box 2 peptide]
